Literature values, collected in PMC8531642.

Key:
[1] = target: Cytochrome c (UniProt P99999)
[2] = target: LRG1 (Homo sapiens) (UniProt P02750); assay: SPR
Sequence of UniProt P02750 (P02750 36-347): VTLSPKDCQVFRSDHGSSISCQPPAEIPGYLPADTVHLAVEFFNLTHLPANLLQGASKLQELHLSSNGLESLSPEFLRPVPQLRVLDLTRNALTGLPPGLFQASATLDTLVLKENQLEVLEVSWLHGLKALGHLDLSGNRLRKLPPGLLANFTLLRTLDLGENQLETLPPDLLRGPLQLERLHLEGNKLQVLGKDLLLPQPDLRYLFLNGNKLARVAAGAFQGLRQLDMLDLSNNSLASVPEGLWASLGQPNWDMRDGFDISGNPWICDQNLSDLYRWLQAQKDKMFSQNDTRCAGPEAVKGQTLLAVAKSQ

Substance: Apaf-1 (from UniProt O14727)
- Kd [1]: 500 nM

Substance: TGF-β1 (from UniProt P01137)
- Kd [2]: 2320 nM

Substance: Cytochrome c (from UniProt P99999)
- Kd [2]: 0.000158 nM
